The source of these data is PMC10100567.

In this assay the target is high-affinity IgE receptor FcεRI on the surface of RBL-2H3 cells (rat (endogenous in RBL-2H3)). Put plainly: Ligand Tracer.

On to “Cy5-labeled monoclonal mouse anti-DNP IgE (clone SPE-7) (antibody)”, for which the dissociation constant (Kd) (in general, a measure of binding affinity in units of concentration) came out at 1.3 nM.
